Data reported in the supplement of paper PMC11246515.
± gives the standard deviation of the averaged measurements.

Test: total protein half-life in vivo (active degradation + dilution); higher = more stable protein
[1] = E. coli NCM3722 delta-clpP delta-lon delta-hslV, growth: N-lim chemostat, doubling time 6 h
[2] = E. coli NCM3722 delta-clpP, growth: N-lim chemostat, doubling time 6 h
[3] = E. coli NCM3722 delta-lon, growth: N-lim chemostat, doubling time 6 h
[4] = wild type E. coli NCM3722, growth: C-lim chemostat, doubling time 3 h
[5] = wild type E. coli NCM3722, growth: C-lim chemostat, doubling time 6 h
[6] = wild type E. coli NCM3722, growth: C-lim chemostat, doubling time 12 h
[7] = wild type E. coli NCM3722, growth: N-lim chemostat, doubling time 12 h
[8] = wild type E. coli NCM3722, growth: P-lim chemostat, doubling time 6 h
[9] = wild type E. coli NCM3722, growth: P-lim chemostat, doubling time 12 h
[10] = E. coli NCM3722 delta-hslV, growth: N-lim chemostat, doubling time 6 h
[11] = E. coli NCM3722 delta-smpB, growth: N-lim chemostat, doubling time 6 h
[12] = wild type E. coli NCM3722, growth: N-lim chemostat, doubling time 6 h

Row | Sequence | total protein half-life in vivo [1] | total protein half-life in vivo [2] | total protein half-life in vivo [3] | total protein half-life in vivo [4] | total protein half-life in vivo [5] | total protein half-life in vivo [6] | total protein half-life in vivo [7] | total protein half-life in vivo [8] | total protein half-life in vivo [9] | total protein half-life in vivo [10] | total protein half-life in vivo [11] | total protein half-life in vivo [12]
1 | MNISDVAKITGLTSKAIRFYEEKGLVTPPMRSENGYRTYTQQHLNELTLLRQARQVGFNLEESGELVNLFNDPQRHSADVKRRTLEKVAEIERHIEELQSMRDQLLALANACPGDDSADCPIIENLSGCCHHRAG [P0A9G4] | 4.71 ± 0.63 h | 1.45 h | 2.12 ± 0.77 h | 1.3 h | 1.95 h | 2.21 h | 1.07 h | 0.945 h | 2.28 ± 0.59 h |  |  | 
2 | MATLKDIAIEAGVSLATVSRVLNDDPTLNVKEETKHRILEIAEKLEYKTSSARKLQTGAVNQHHILAIYSYQQELEINDPYYLAIRHGIETQCEKLGIELTNCYEHSGLPDIKNVTGILIVGKPTPALRAAASALTDNICFIDFHEPGSGYDAVDIDLARISKEIIDFYINQGVNRIGFIGGEDEPGKADIREVAFAEYGRLKQVVREEDIWRGGFSSSSGYELAKQMLAREDYPKALFVASDSIAIGVLRAIHERGLNIPQDISLISVNDIPTARFTFPPLSTVRIHSEMMGSQGVNLVYEKARDGRALPLLVFVPSKLKLRGTTR | 5.54 ± 0.078 h | 6.95 ± 1.2 h | 5.72 ± 0.54 h | 2.89 ± 0.27 h | 5.94 ± 0.29 h | 9.8 ± 0.15 h |  | 6.01 ± 0.76 h | 13.4 ± 2.6 h | 5.31 ± 0.62 h | 5.35 ± 0.066 h | 5.07 ± 0.53 h
3 | MRACINNQQIRHHNKCVILELLYRQKRANKSTLARLAQISIPAVSNILQELESEKRVVNIDDESQTRGHSSGTWLIAPEGDWTLCLNVTPTSIECQVANACLSPKGEFEYLQIDAPTPQALLSEIEKCWHRHRKLWPDHTINLALAIHGQVDPVTGVSQTMPQAPWTTPVEVKYLLEEKLGIRVMVDNDCVMLALAEKWQNNSQERDFCVINVDYGIGSSFVINEQIYRGSLYGSGQIGHTIVNPDGVVCDCGRYGCLETVASLSALKKQARVWLKSQPVSTQLDPEKLTTAQLIAAWQSGEPWITSWVDRSANAIGLSLYNFLNILNINQIWLYGRSCAFGENWLNTIIRQTGFNPFDRDEGPSVKATQIGFGQLSRAQQVLGIGYLYVEAQLRQI | 6.39 ± 0.56 h | 6.61 h | 5.81 ± 0.79 h | > 4 h | 1.97 h | 3 h | 7.97 h | 3.12 h | 4.85 h | 5.18 ± 0.99 h | 3.95 ± 0.094 h | 5.48 ± 0.83 h
4 | MSTEIKTQVVVLGAGPAGYSAAFRCADLGLETVIVERYNTLGGVCLNVGCIPSKALLHVAKVIEEAKALAEHGIVFGEPKTDIDKIRTWKEKVINQLTGGLAGMAKGRKVKVVNGLGKFTGANTLEVEGENGKTVINFDNAIIAAGSRPIQLPFIPHEDPRIWDSTDALELKEVPERLLVMGGGIIGLEMGTVYHALGSQIDVVEMFDQVIPAADKDIVKVFTKRISKKFNLMLETKVTAVEAKEDGIYVTMEGKKAPAEPQRYDAVLVAIGRVPNGKNLDAGKAGVEVDDRGFIRVDKQLRTNVPHIFAIGDIVGQPMLAHKGVHEGHVAAEVIAGKKHYFDPKVIPSIAYTEPEVAWVGLTEKEAKEKGISYETATFPWAASGRAIASDCADGMTKLIFDKESHRVIGGAIVGTNGGELLGEIGLAIEMGCDAEDIALTIHAHPTLHESVGLAAEVFEGSITDLPNPKAKKK [P0A9P0] | 6.89 ± 0.093 h | 6.28 ± 0.24 h | 6.43 ± 0.36 h | 3.11 ± 0.081 h | 6.68 ± 0.33 h | 12.6 ± 1.1 h | 13.1 ± 0.57 h | 6.11 ± 0.12 h | 14.4 ± 0.26 h | 6.35 ± 0.43 h | 6.01 ± 0.24 h | 6.23 ± 0.55 h
5 | MQALLLEQQDGKTLASVQTLDESRLPEGDVTVDVHWSSLNYKDALAITGKGKIIRNFPMIPGIDFAGTVRTSEDPRFHAGQEVLLTGWGVGENHWGGLAEQARVKGDWLVAMPQGLDARKAMIIGTAGFTAMLCVMALEDAGVRPQDGEIVVTGASGGVGSTAVALLHKLGYQVVAVSGRESTHEYLKSLGASRVLPRDEFAESRPLEKQVWAGAIDTVGDKVLAKVLAQMNYGGCVAACGLAGGFTLPTTVMPFILRNVRLQGVDSVMTPPERRAQAWQRLVADLPESFYTQAAKEISLSEAPNFAEAIINNQIQGRTLVKVN | 5.18 ± 0.35 h | 5.271 ± 0.034 h | 5.67 ± 0.37 h | 3.03 ± 0.091 h |  | 10.63 ± 0.024 h | 9.06 ± 0.27 h | 6.5 ± 0.39 h | 13 ± 0.96 h | 5.7 ± 1.2 h | 4.6639 ± 0.0045 h | 5.25 ± 0.21 h
6 | MMKFKKCLLPVAMLASFTLAGCQSNADDHAADVYQTDQLNTKQETKTVNIISILPAKVAVDNSQNKRNAQAFGALIGAVAGGVIGHNVGSGSNSGTTAGAVGGGAVGAAAGSMVNDKTLVEGVSLTYKEGTKVYTSTQVGKECQFTTGLAVVITTTYNETRIQPNTKCPEKS |  |  |  | 1.87 h |  |  |  |  |  |  | 2.3 h | 2.73 h
